# Source: publication doi:10.1101/2025.03.05.641625
# Key:
# [1] = molecular target: SARS-CoV-2 core RTC with nsp13.1 bound (RTC-nsp13.1) (SARS-CoV-2) (UniProt P0DTD1); assay: magnetic tweezers
# [2] = molecular target: SARS-CoV-2 core replication-transcription complex (nsp12-polymerase, nsp7, nsp8) (SARS-CoV-2) (UniProt P0DTD1); assay: magnetic tweezers
substance,measurement,setting,value
SARS-CoV-2 nsp13-helicase (wild type) (from UniProt P0DTD1 5325-5925) (enzyme),Ka,[1],4.6e+08 M⁻¹
same,Ka,[2],2.3e+08 M⁻¹
